# Results from the nanobody polyreactivity screen of Harvey et al. (2022).
# Assay: yeast display, Sf9 membrane polyspecificity reagent, FACS + sequencing; frameworks hold sequencing errors
# How it was run: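 Sorting gates, low and high (top ~1%), were placed on anti-HA fluorescence to track expression and on streptavidin fluorescence to track reagent binding. A clone's polyreactivity label is taken from the gate it came out of. The reagent was 10% biotinylated, detergent-solubilized Sf9 membrane, applied for 1 hour at 4 °C to galactose-induced yeast display cells.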
row,Sequence,polyreactivity (PSR sort gate)
1,QVQLVESGGGLVQAGGSLRLSCAASGIIFRKYAMGWYRQAPGKERELVAAISWRGGSTYYADSVKGRFTISRDNAKNTVYLQMNSLKPEDTAVYYCAAVAQITGYDYWGQGTQVTVSS,high polyreactivity
2,QVQLVESGGGLVQAGGSLRLSCAASGIIFRLNAMGWYRQAPGKERELVAAIRRRGGSTYYADSVKGRFTISRDKAKNTVYLQMNSLKPEDTAVYYCAKDPHGSDFGYWGQGTQVTVSS,low polyreactivity
3,QVQLVESGGGLVQAGGSLRLSCAASGIIFRLYAMGWYRQAPGKERELVAAISYRGGSTYYADSVKGRFTISRDNAKNTVYLQMNSLKPEDTAVYYCAARNPRYSFYYWGQGTQVTVSS,high polyreactivity
4,QVQLVESGGGLVQAGGSLRLSCAASGIIFRNNAMGWYRQAPGKEREFVARISKRGGSTYYADSVKGRFTISRDNAKNTVYLQMNSLKPEDTAVYYCAKGYGSGSYLYDYWGQGTQVTVSS,high polyreactivity
5,QVQLVESGGGLVQAGGSLRLSCAASGIIFRNYAMGWYRQAPGKERELVATITGDGGSTYYADSVKGRFTISRDNAKNTVYLQMNSLKPEDTAVDYCAADRPYAGRYWKGYHSALYDYWGQGTQVTVSS,low polyreactivity
6,QVQLVESGGGLVQAGGSLRLSCAASGIIFRPYTMGWYRQAPGKERELVAAISQSGGRTYYADSVKGRFTISRDNAKNTVYLQMNSLKPEDTAVYYCNVLGSYSYYGGNDLWYYYWGQGTQVTVSS,high polyreactivity
7,QVQLVESGGGLVQAGGSLRLSCAASGIIFRRYAMGWSRQAPGKERELVAAITHRGSTYYADSVKGRFTISRDNAKNTVYLQMNSLKPEDTAVYYCAADGFTRWGRYDYWGQGTQVTVSS,high polyreactivity
8,QVQLVESGGGLVQAGGSLRLSCAASGIIFRRYAMGWYRQAPGKEREFVAAIRYTGGGTYYADSVKGRFTISRDNAKNTVYFQMNSLKPEDTAVYYCAASPWSRGSRWRPFDYWGQGTQVTVSS,high polyreactivity
9,QVQLVESGGGLVQAGGSLRLSCAASGIIFRSYAMGWYRQAPGKERELVAAITGGGTTNYADSVKGRFTISRDNAKNTVYLQMNSLKPEDTAVYYCNAGLDWFWFNEMDYWGQGTQVTGSS,low polyreactivity
10,QVQLVESGGGLVQAGGSLRLSCAASGIIFRTNAMGWYRQAPGKEREFVAAISAGGTRTYYADSVKGRFTISRDNAKNTVYLQMNSLKPEDTAVYYCAAASGYDYWGQGTQVTVSS,high polyreactivity
11,QVQLVESGGGLVQAGGSLRLSCAASGIIFRVYAMGWYRQAPGKERELVASITDRGTRTYYADSVKGRFTISRDNAKNTVYLQMNSLKPEDTAVYYCADEPNYLYWGFFSVGYDYWGQGTQVTVSS,high polyreactivity
12,QVQLVESGGGLVQAGGSLRLSCAASGIIFRVYAMGWYRQAPGKERELVATITWSGGSTFYADSVKGRFTISRDNAKNTVYLQMNSLKPEDTAVYYCAARFLWSVFGRKGGYWGQGTQVTVSS,low polyreactivity
13,QVQLVESGGGLVQAGGSLRLSCAASGIIFRWYAMGWYRQAPGKERELVAAITRSGGSTYYADSVKGRFTISRDNAKNTVYLQMNSLKPEDTAVYYCAAEYYAPSYKFDYWGQGTQVTVSS,high polyreactivity
14,QVQLVESGGGLVQAGGSLRLSCAASGIIFRWYAMGWYRQAPGKERELVAGITSTTGTTYYADSVKGRFTISRDNAKNTVYLQMNSLKPEDTAVYYCAADYYCYTTAGVVDSFEYWGQGTQVTVSS,low polyreactivity
15,QVQLVESGGGLVQAGGSLRLSCAASGIIFRWYGMGWYRQAPGKERELVATITSGGRTNYADSVKGRFTISRDNAKNTGYLQMHSLKPEDTAVYYCAAARLFAMDYWGQGTQVTVSS,low polyreactivity
16,QVQLVESGGGLVQAGGSLRLSCAASGIIFRYNAMGLYRQAPGKERELVAAISWSGGYTYYADYVKGRFTISRDNAKNTVYFQMNSLKPEDTAVYYFNAVSLSRWGGYWGQGTQVTVSS,high polyreactivity
17,QVQLVESGGGLVQAGGSLRLSCAASGIIFRYYAMGWYIQAPGKERELVARITSGARTTYADSVKGRFTISRDNAKNTVYLQMNSLKPEDSAVYYCNAVRRYGLEYNYWGQGTQVTVSS,high polyreactivity
18,QVQLVESGGGLVQAGGSLRLSCAASGIIFRYYAMGWYRQAPGKEREFVADISASDGSTYYADSVKGRFTISRDNAKNTVYLQMNSQKPEDTAVSYCNARKYWKYGSYQYYWGQGTEVTVSS,high polyreactivity
19,QVQLVESGGGLVQAGGSLRLSCAASGIIFRYYAMGWYRQAPGKERELVAAISVSGGSTYDADSVKGRFTISRDNAKNTVYLQMNSLKPEDTAVYYCAARTRDFGYWGQGTQVTVSS,high polyreactivity
20,QVQLVESGGGLVQAGGSLRLSCAASGIIFRYYARVWYRQAPGKEREFVAAINYSGGSTYYADSVKGRFTISRDTAKYSVYLQMNSLKPEDTAVYYCAARSYTYTAPIYGYWGQGTQVTVSS,high polyreactivity
21,QVQLVESGGGLVQAGGSLRLSCAASGIIFSFYAMGWYRQAHGKERELVADITLSGGRTYYADSVKGRFTISRDNAKNTVYLQMNSLKPEDTAVYYCNADTYERGDYWGQGTQVTVSS,high polyreactivity

row,Sequence,polyreactivity (PSR sort gate)
1,QVQLVESGGGLVQAGGSLRLSCAASGIIFSINAMGWYRQAPGKERELVAAISRSGGSTNYADSVKGRFTISRDNAKNTVYLQMNSLKPEDTAVYYCATVHRYSVWSHNYWGQGTQVTVSS,high polyreactivity
2,QVQLVESGGGLVQAGGSLRLSCAASGIIFSLYAMGWYRQAPGKERELVAAISASDGSTYYAVSVKGRFTISRDNAKNTVYLQMNSLKPEDTAVYYCAADSRPTQEYDYWGQGTQVTVSS,low polyreactivity
3,QVQLVESGGGLVQAGGSLRLSCAASGIIFSLYVMGWYRQAPGKERELVAAIRSGGSTYYADSVKGRFTISRDNAKNTVYLQMNSLKPEDTAGDYCAARVRSGTGVGFDYWGQGTQVTVSS,high polyreactivity
4,QVQLVESGGGLVQAGGSLRLSCAASGIIFSNYAMGWYRQAPGKERELVAAITRSGGRTYYADSVKGRFTISRDNAKNTVYLQMNSLKPEDTAVYYCAATGRSGVLSSYYYWGQGTQVTVSS,high polyreactivity
5,QVQLVESGGGLVQAGGSLRLSCAASGIIFSPNAMGWYRQAPGKEMELVAGISSGGSTYYADSVKGRFTISRDNAKNTVYFQMNSLKPEDTAVYYCNRGWAHSNAKFDYWGQGTQVTVSS,high polyreactivity
6,QVQLVESGGGLVQAGGSLRLSCAASGIIFSPNAMGWYRQAPGKERELVAGISSGGSTYYADSVKGRFTLSRDNAKNTVYLQMNSLKPEDTAVYYCAVRSRIFGSWYGYGYWGQGTQVTVSS,high polyreactivity
7,QVQLVESGGGLVQAGGSLRLSCAASGIIFSQYAMGWYRQAPGKERELVATITSRGASTYYADSVKGRFTISRDNAKNTVYLQMNSLKPEDTAVYYCAATVRRRYERYNYWGQGTQVTVSS,high polyreactivity
8,QVQLVESGGGLVQAGGSLRLSCAASGIIFSRYAMGWYRQAPGKERELDAAISSRGTSTYYADSVKGRFTISRDNAKNTVYLQMNSLKPEDTAVYYCNAVSRPVRHKSTYDYWGQVTQVTVSS,high polyreactivity
9,QVQLVESGGGLVQAGGSLRLSCAASGIIFSRYAMGWYRQAPGKERELVAVISSSGGRTYYADSVKGRFTISRDNAKNTVYLQMNSLKPEDTAVYYCAAYTRTGSHLRAYYYWGQGTQVTVSS,high polyreactivity
10,QVQLVESGGGLVQAGGSLRLSCAASGIIFSSYAMGWYRQAPGKERELVADISYTGGSTYYADSVKGRFTISRDNAKNTVYLQMNSLKPEDTAVYYCAAGVYLHYSVDYWGQGTQVTVSS,low polyreactivity
11,QVQLVESGGGLVQAGGSLRLSCAASGIIFSSYVMGWYRKATGKERELVAAISSRGVSTYYADSVKGRFTISRDNAKNTVYLQMNSLKPEDTAVYYCNAKDKQGRKQFKLCAGYYLGQGTQVTVSS,high polyreactivity
12,QVQLVESGGGLVQAGGSLRLSCAASGIIFSVYAMGWYRQAPGKERELVAAITWSGSRTYYADSVKGRFTISRDNAKNTVYLQMNSLKPEDTAVYYCATVFRGFVEYEYWGQGTQVTVSS,low polyreactivity
13,QVQLVESGGGLVQAGGSLRLSCAASGIIFSWYDMGWYRQAPGKERELVAAISYRGSTNYADSVKGRFTISLDNAKNTVYLQMNSLKPEDTAVYYCNGPRRQYEYDYWGQGTQVTVSS,high polyreactivity
14,QVQLVESGGGLVQAGGSLRLSCAASGIIFSYYAMGWYRQAPGKERELVADISSDGSTNYADSVKGRFTISRDNAKNTVYLQMNSLKPEDTAVYYCAAGYVHYGWFELDYWGQGTQVTVSS,low polyreactivity
15,QVQLVESGGGLVQAGGSLRLSCAASGIIFSYYVMGWYRQAPGKERELVAAISRSGAITYYADSVKGRFTISRDNAKNTVYLQMNSLKPEDTSVYYCAAELVPYSYHLRLDYWGQGTQVTVSS,high polyreactivity
16,QVQLVESGGGLVQAGGSLRLSCAASGIIFTKYAMGWYRQAPGTERELVAAITSGGRTNYADSVKGRFTISRDNAKNTDYLQMNSLKPEDTAVYYCAARYPSRDLLRRYKYWGQGTQVTVSS,high polyreactivity
17,QVQLVESGGGLVQAGGSLRLSCAASGIIFTWYAMGWYRQAPGKERELVAAISGSGDITYYADSVKGRFTISRDNAKNTVFLQMNSLKPEDTAVYYCAADPWTYWEDYDYWGQGTQVTVSS,low polyreactivity
18,QVQLVESGGGLVQAGGSLRLSCAASGIIFTYAIGWYRQAPGKERELVAAIDWRGGRTYYADSVKGRFTISRDNAKNTVYLHMNSLKREDTAVYYCGARLGGGTYYWGQGTQVTVSS,high polyreactivity
19,QVQLVESGGGLVQAGGSLRLSCAASGIIFTYYAMGWYRQAPGKERELVAGISSSGGITYADSVKGRFTISRDNAKNTVYLQMNSLKPEDTAVYYCAAESYGRSETEDDYWGQGTQVTVSS,low polyreactivity
20,QVQLVESGGGLVQAGGSLRLSCAASGIIFTYYAMGWYTQAPGKERELVAAISSRGDSTYYADSVKGRFTISRDNAKNTVYLQMNSLKPEDTAVYYCNRYLSRPLRAMYYWGLGTQVTVSS,high polyreactivity
